Data set [1] in a line: fluorescence lifetime imaging (TCSPC); in vitro, 4:1 Tau:heparin (Mr 3000), 24 h, 37 °C; K18*: 1 μM, 10% labelled with Alexa Fluor 488, in cell culture medium (3664 ± 25 ps before); hTau40*: 20 μM, 1% labelled, in BES buffer pH 7.4 (3657 ± 18 ps before); a drop of the lifetime reports …. To be noted: other: fluorescence lifetime imaging (TCSPC).
Data set [2] in a line: fluorescence lifetime imaging (TCSPC); in vitro, pH 4.7, no heparin, 24 h; K18*: 1 μM, 10% labelled, cell culture medium (3824 ± 22 ps soluble); hTau40*: 10 μM, 1% labelled, BES buffer (3765 ± 53 ps soluble). Particulars: other: fluorescence lifetime imaging (TCSPC).
Data set [3] deals with K18* (four-repeat construct K18 of human Tau with Cys-291 and Cys-322 replaced by alanine and Ile-260 replaced by cysteine) (human). Description: SDS-PAGE and Western blot of sequential detergent extracts; SH-SY5Y cells incubated 8 h with 1 μM K18*, trypsin-washed, lysed; Triton and sarkosyl fractions; NuPAGE 4-12% BisTris gel, anti-human Tau antibody A0024.

We go through 2 substances from paper PMC3887218.

Take “K18* (four-repeat construct K18 of human Tau with Cys-291 and Cys-322 replaced by alanine and Ile-260 replaced by cysteine)”: the “fluorescence lifetime of the Alexa Fluor 488 label, aggregated with heparin” value in data set [1] was determined as 3262 ± 71 ps when aggregated. The “fluorescence lifetime of the Alexa Fluor 488 label, aggregated at pH 4.7” value in data set [2] was 3268 ± 31 ps.

In general, stoichiometry N refers to the number of molecules, sites or subunits per partner or assembly. “K18* (four-repeat construct K18 of human Tau with Cys-291 and Cys-322 replaced by alanine and Ile-260 replaced by cysteine) (domain or fragment)” gave a stoichiometry N in data set [3] of 2.
